Experiment: yeast display, Sf9 membrane polyspecificity reagent, FACS + sequencing; frameworks hold sequencing errors
Method in brief: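 Using colony PCR, genes from sorted yeast display clones were amplified, then sequenced on MiSeq at 2 × 250 and filtered by CDR length. The clones had been stained with 10% biotinylated, detergent-solubilized Sf9 membrane reagent for 1 hour at 4 °C and sorted by FACS into low and high (top ~1%) gates on anti-HA and streptavidin fluorescence. Polyreactivity labels come from the gate of origin.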

| Sequence | polyreactivity (PSR sort gate) |
| --- | --- |
| QVQLVESGGGLVQAGGSLRLSCAASGAIFYYYAMGWYRQAPGKERELVATITASGGSTFYADSVKGRFTISRDNAKNTVYLQMNSLKPEDTAVYYCAATVYYTYWGQGTQVTVSS | low polyreactivity |
| QVQLVESGGGLVQAGGSLRLSCAASGATFERNAMGWYRQAPGKERELVAAITGSGGRTYYADSVKGRFTISRDNAKNTVYLQMNSLKPEDTAVYYCAKDTYYPSSRYNRYYYWGQGTQVTVSS | high polyreactivity |
| QVQLVESGGGLVQAGGSLRLSCAASGATFSVNAMGWYRQAPGKEREWVAAISSTGSTKYADSVKGRFTISRDNAKNPVYLQMNSLKPEDTAVYCAASNADYEYYPFSVWYFSPYDYWGHGTQVTVSS | low polyreactivity |
| QVQLVESGGGLVQAGGSLRLSCAASGCTFSIYAMGWYRQAPGKERELVAAFTGTVGSTYYADSVKVRFTISRDNAKNTVYLQMKSLKPEDTAVYYCNVDWFWNWRGYYWGQGTQVTVSS | low polyreactivity |
| QVQLVESGGGLVQAGGSLRLSCAASGDIFDAYAMGWYRQAPGKERELVAAISRSGGSTYYADSVKGRFTISRDNAKNTVYLQMNSLKPEDTAVYYCATRFSRRYVRYDYWGHGTQVTVSS | high polyreactivity |
| QVQLVESGGGLVQAGGSLRLSCAASGFFFDEYAMGWYRLAPGKERELVAAIDVGGSTYYADSVKGRFTISRDNAKNTVYLQMNSLKPEDTAVYYCARDAFSVSDFSYASIEYDYWGQGTQVTVSS | low polyreactivity |
| QVQLVESGGGLVQAGGSLRLSCAASGFICTGYTMGWYRQAPGKERELVARISSGDSTKYADSVKGRFTISRDNAKNTVYLQMNSLKPEDTAVYYCNVRDRRSIRSRSDYWGQGTQVTVSS | high polyreactivity |
| QVQLVESGGGLVQAGGSLRLSCAASGFICYFYAMGWYRQAPGKERELVAVITQSGGSTYYADSVKGRFTISRDNAKNTVYLQMNSLKPEDTAVYYCNADTVRYYPFFSVRYYYWGQGTQVTVSS | low polyreactivity |
| QVQLVESGGGLVQAGGSLRLSCAASGFIFADYDMGWYRQAPGKERELVAAISWSGGTTYYADSVKGRFTISRDNAKNTVYLQMNSLKPEDTAVYYCAAYWWAVYSVVTGARYDYWGQGTQVTVSS | high polyreactivity |
| QVQLVESGGGLVQAGGSLRLSCAASGFIFAEYAMGWYRQAPWKERELVAAITRSGGRTYYADSVKGRFTISRDNAKNTVYLQMNSLKPEDTAVYYCAAGLGYPRLYYCGQGTQVTVSS | high polyreactivity |
| QVQLVESGGGLVQAGGSLRLSCAASGFIFAFYDMGWYRQAPGKERELVAAISWGGSTYYADSVKGRFTISRDNAKNTVYLQMNSLKPQDTAVYYCAARLSRSYRYGYWGQGTQVTVSS | high polyreactivity |
| QVQLVESGGGLVQAGGSLRLSCAASGFIFAGYALGWYRQAPGKERELVAAISSGGGSTYYADSVKGRFTISRDNAKNTGYLQMNSLKPEDTAVYYCAARRLYPPGYYYWGQGTQVTVSS | high polyreactivity |
| QVQLVESGGGLVQAGGSLRLSCAASGFIFAIYAMGWYRQAPGKEMELVAAITSSGGSTYYADSVKGRFTISRDNAKNTVYLQMNSLKPEDTAVYYCNKLSWRKYLGYEYWGQGTHVTVSS | high polyreactivity |
| QVQLVESGGGLVQAGGSLRLSCAASGFIFALYAMGWYRQAPGKERELVASISKSGARTYYADSVKGRFTISRDNAKNTVDLQMNSLKPEDPAVYYCAALYRTGGIQYAGYGYWGQGTQVTVSS | high polyreactivity |
| QVQLVESGGGLVQAGGSLRLSCAASGFIFANYGMGWYRQAPGKERELVAAISSGGRTYYADSVKARFTISRDNAKNTVYFQMNSLQPEDTAVYYCAAVVRRYNAEDYWGQGTQVTVSS | high polyreactivity |
| QVQLVESGGGLVQAGGSLRLSCAASGFIFAQNAMGWYRQAPGKERELVAAISGSGGRTYYADSVKGRFTISRDNAKNTVYLQMNSLKPEDTAVYYCAAQYFSGYWGQGTQVTVSS | high polyreactivity |
| QVQLVESGGGLVQAGGSLRLSCAASGFIFASNAMGWYRPAPGKERELVAAISTNGGSTNYADSVKGRFTISRDNAKKTVYLQMNSLKPEDTAVYYCNTDFPTQYGTRIGDDYWGQGTQVTVSS | low polyreactivity |
| QVQLVESGGGLVQAGGSLRLSCAASGFIFATNNMGWYRQAPGKERELVAASSTYYADSVKGRFTISRDNAKNTVYLQMNSLKPEDTAVYYCNALYRYLYRSGDYWGLGTQVTVSS | low polyreactivity |
| QVQLVESGGGLVQAGGSLRLSCAASGFIFAVNAMGWYRPAPGKERELVAAISRSGGTTYYADSVKGRFTISRDNAKNTVYLQMNSLKPEDTAVYYCARSSGLRSWRSSDYWGQGTQVTVSS | high polyreactivity |
| QVQLVESGGGLVQAGGSLRLSCAASGFIFAYNAMGWYRQAPGKEWELVAAISWSGGSTYYADSVKGRFTISRDNAKNTVYLQMNSLKPEDTAVYYCNKYLRYPFKRYGYWGQGTQVTVSS | high polyreactivity |
| QVQLVESGGGLVQAGGSLRLSCAASGFIFAYYAMGRYRQAPGKEREFVAVINWSGGITYYADSVKGRFTISRDNAKNTVYLQMNSLKPEDTAVYYCAADELAGYDYWGQGTQVTVSS | low polyreactivity |
| QVQLVESGGGLVQAGGSLRLSCAASGFIFAYYAMGRYRQAPGKERELVAAITIDGSTYYADSVKGRFTIHDNAKNTVYLQMNRLKPEDTAVYYCNAGRWVYWQNNFGDYGYWGQGTQVTVSS | low polyreactivity |
| QVQLVESGGGLVQAGGSLRLSCAASGFIFAYYAMGWYRQAPGKERELVAAISQSGTSTYYADSVKGRFTISRDNAKNTVYLQMNSLKPEDTAVYYCNVVPTGVHIFDYWGQGTQVTVSS | low polyreactivity |
| QVQLVESGGGLVQAGGSLRLSCAASGFIFAYYAMGWYRQAPGKERELVAAISSRAGRTYYADSVKGRFTISRDNAKNTVYLQMNSLKPEYTAVYYWAAPTSSSGRYHRYYYWGQGTQVTVSS | high polyreactivity |
| QVQLVESGGGLVQAGGSLRLSCAASGFIFAYYAMGWYRQAPGKERELVAAISSSGGSTYYADSVKGRFTISRDNAKNTVYLQMNSLKPEDTAVYFCNRRWVAPYFYSRYYSGQEEGYWGQGTQVTVSS | high polyreactivity |
| QVQLVESGGGLVQAGGSLRLSCAASGFIFAYYAMGWYRQAPGKETELVAAITWSGGRTYYADSVKGRFTISRDNSKNTVYLQMNSLKPEDTAVYYCNAVRPSVDYGYWGQGTQVTVSS | high polyreactivity |
| QVQLVESGGGLVQAGGSLRLSCAASGFIFAYYTMGWYRQAPGKEREFVASITYSGGNTYYADSVKGRFTISRDNAKNTVYLQMNSLKPEDTAVYYCATRDGYSISTTGLMDYWGQGTQVTVSS | low polyreactivity |
| QVQLVESGGGLVQAGGSLRLSCAASGFIFDAYAMGWYRQAPGKERELVAAITRGNTYYADSVKGRFTISRDNAKNTVYLQMNSLKPEDTALYYCNADYNYANYPHDYWGQVTQVTVSS | low polyreactivity |
| QVQLVESGGGLVQAGGSLRLSCAASGFIFDDNTMGWYRQAPGKERELVAAISYSAGSTYYADSVKGRFTISRDNAKNTVYLQMNSLKPEDTAVYYCAAQHYWVTSYLSSYDYWGQGTQVTVSS | low polyreactivity |
| QVQLVESGGGLVQAGGSLRLSCAASGFIFDHNAMGWYRQAPGKERELVAAISGSGGSTYYADSVKGRFTISRDNAKNTVYLQMNSLKPEDTAVYYCNALKRTRLVRYYYWGQGTQVNVSS | high polyreactivity |
